Publication PMC9381478 (Cellular and Molecular Life Sciences: CMLS, 2022)

T1: Spd1 (full-length) (S. pombe, UniProt Q10585 1-124)
T1 construct: Spd1 of S. pombe; also called 15N-Spd1
T1 sequence (looked up): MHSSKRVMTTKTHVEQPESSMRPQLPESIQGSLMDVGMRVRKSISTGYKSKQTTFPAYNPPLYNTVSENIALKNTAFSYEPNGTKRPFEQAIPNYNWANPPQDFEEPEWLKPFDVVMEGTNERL

B1: Dss1 N71C (mentioned as "Dss1 WT") (natural protein, S. pombe, UniProt O14140 1-71, looked up)
chain: MSRAALPSLENLEDDDEFEDFATENWPMKDTELDTGDDTLWENNWDDEDIGDDDFSVQLQAELKKKGVAAC
notes: Dss1 (deleted in split hand/split foot 1) of S. pombe; Used unlabelled, 15N- or 13C,15N-labelled; also called full-length Dss1; WT Dss1; source: E. coli BL21(DE3), purified (nickel Sepharose, ULP1 cleavage, reversed phase); not shown: His6-SUMO, N-terminal, cleaved
B2: wild-type Dss1 peptide (peptide)
peptide: Ac-GDDTLWENNWDDEDI-NH2
notes: also called WT Dss1 peptide; UBS1 from Dss1; source: synthetic peptide, bought: TAG Copenhagen
B3: PepDMD (peptide)
peptide: Ac-DLWEDDWDLWEDDWD-NH2
notes: PepDM with the asparagines of the core substituted with aspartates; also called DMD peptide; source: synthetic peptide, bought: TAG Copenhagen
B4: PepDWD (peptide)
peptide: Ac-DDTLWWEDDWWDDED-NH2
notes: PepDW with the two asparagines of the core substituted with aspartates; also called DWD peptide; source: synthetic peptide, bought: TAG Copenhagen
B5: PepDW (peptide)
peptide: Ac-DDTLWWENNWWDDED-NH2
notes: UBS1 of S. pombe Dss1 (O14140) with two extra tryptophans; also called double tryptophan; Pep42 (as soluble peptide); source: synthetic peptide, bought: TAG Copenhagen
B6: PepDM (peptide)
peptide: Ac-DLWENNWDLWENNWD-NH2
notes: core motif WENNW of S. pombe Dss1 (O14140) repeated; also called double motif; Pep43 (as soluble peptide); source: synthetic peptide, bought: TAG Copenhagen
B7: S. pombe ubiquitin with an N-terminal 6xhistidine-tag, TEV-cleavage site and an N-terminal free cysteine (natural protein)
chain: not shown
notes: ubiquitin of S. pombe, the cut product of its precursors; An added free cysteine stands N-terminal of ubiquitin together with the tag and the TEV linker; Used 15N-labelled or unlabelled; also called 15N-labeled ubiquitin; 15N-ubiquitin; source: E. coli BL21(DE3), purified (nickel Sepharose, SEC); not shown: His6, N-terminal, kept; TEV cleavage site, N-terminal, kept

The binders below were run against B7 (assay: NMR titration; 100 µM 15N-ubiquitin, unlabelled peptide or protein added or titrated (peptides to 1 mM, WT Dss1 peptide to 5 mM); 20 mM NaH2PO4, 150 mM NaCl, 5 mM TCEP, pH 7.5; CSPs of 1H-15N-HSQC, global fit to a one-site model). Details: both partners purified.
For B1, the Kd was 380 ± 40 µM.
B2 showed a Kd of 3000 ± 200 µM.
Work on B3 yielded a Kd of 480 ± 40 µM.
In the case of B4, the Kd is reported as 600 ± 30 µM.
B5 showed a Kd of 1200 ± 90 µM.
B6 was tested, and the Kd was 1300 ± 120 µM.

The binders below were run against T1, Spd1 (full-length) (assay: NMR titration; 30 µM 15N-Spd1 with 560 µM ubiquitin added; CSPs mapped on Spd1). Details: both partners purified.
B7: binds.
